# According to patent US20090053761A1, “Polypeptide Mutagenesis Method” (University College Cardiff Consultants Ltd., priority 2005, published 2009):
# B1: Wild-type (pNOM): wild-type TEM-1 β-lactamase encoded by the bla gene of pNOM, control (protein, UniProt P62593 24-286, looked up)
# Beta-lactamase TEM: HPETLVKVKDAEDQLGARVGYIELDLNSGKILESFRPEERFPMMSTFKVLLCGAVLSRVDAGQEQLGRRIHYSQNDLVEYSPVTEKHLTDGMTVRELCSAAITMSDNTAANLLLTTIGGPKELTAFLHNMGDHVTRLDRWEPELNEAIPNDERDTTMPAAMATTLRKLLTGELLTLASRQQLIDWMEADKVAGPLLRSALPAGWFIADKSGAGERGSRGIIAALGPDGKPSRIVVIYTTGSQATMDERNRQIAEIGASLIKHW
# Test system: E. coli
# Assay: TEM-1 β-lactamase activity in vivo: ampicillin MIC of BLA DEL library colonies
# Assay type: cell-based, Escherichia coli DH5α
# Conditions: minimum ampicillin concentration preventing growth of E. coli DH5α carrying the bla variant in pNOM; LB agar, 37° C., 16 hr
# Protocol: The MuDel-inserted pNOM plasmids were isolated from each of the 22 colonies and equal amounts of each plasmid were pooled and subjected to restriction digestion with MlyI followed by agarose gel electrophoresis. The band corresponding to the linear pNOM minus MuDel was isolated and purified after agarose gel electrophoresis. Intramolecular ligation was performed using T4 DNA ligase and approximately 10 ng of linear pNOM (reaction conditions described above). The reaction was left at 25° C. for 10 min followed by 10 hr at 16° C. E. coli DH5α cells were transformed by electroporation with 1 μl of the ligation mixture. 500 μl of SOC medium was added to the cells immediately after electroporation and the cells were incubated at 37° C. for 1 hr. 50 μl and 500 μl of the recovering transformed cell cultures were plated on LB agar plates containing 15 μg/ml ampicillin. The plates were left overnight at 37° C. and 94 BLA^DEL library and two pNOM-containing colonies were selected and transferred to 96 deep-well culture plates containing 200 μl LB medium and 15 μg/ml ampicillin. The cells were grown for 16 hr at 37° C. with vigorous shaking. Sterile glycerol was added to 10% (v/v) for storage at −80° C.
# The TEM-1 β-lactamase activity of each colony was measured in vivo by determining the minimum inhibitory concentration (MIC) of ampicillin that prevents E. coli growth. […]
molecule,measurement,value
B1,Amp MIC,> 10000 µg/mL
